In article PMC10491200 (bioRxiv, 2023):

Molecular target: the molecule itself
Test: cryo-EM structure

B1: human mGlu5 (21-872), metabotropic glutamate receptor subtype 5, in MSP2N2 lipid nanodisc (receptor)
chain: QSSERRVVAHMPGDIIIGALFSVHHQPTVDKVHERKCGAVREQYGIQRVEAMLHTLERINSDPTLLPNITLGCEIRDSCWHSAVALEQSIEFIRDSLISSEEEEGLVRCVDGSSSSFRSKKPIVGVIGPGSSSVAIQVQNLLQLFNIPQIAYSATSMDLSDKTLFKYFMRVVPSDAQQARAMVDIVKRYNWTYVSAVHTEGNYGESGMEAFKDMSAKEGICIAHSYKIYSNAGEQSFDKLLKKLTSHLPKARVVACFCEGMTVRGLLMAMRRLGLAGEFLLLGSDGWADRYDVTDGYQREAVGGITIKLQSPDVKWFDDYYLKLRPETNHRNPWFQEFWQHRFQCRLEGFPQENSKYNKTCNSSLTLKTHHVQDSKMGFVINAIYSMAYGLHNMQMSLCPGYAGLCDAMKPIDGRKLLESLMKTNFTGVSGDTILFDENGDSPGRYEIMNFKEMGKDYFDYINVGSWDNGELKMDDDEVWSKKSNIIRSVCSEPCEKGQIKVIRKGEVSCCWTCTPCKENEYVFDEYTCKACQLGSWPTDDLTGCDLIPVQYLRWGDPEPIAAVVFACLGLLATLFVTVVFIIYRDTPVVKSSSRELCYIILAGICLGYLCTFCLIAKPKQIYCYLQRIGIGLSPAMSYSALVTKTNRIARILAGSKKKICTKKPRFMSACAQLVIAFILICIQLGIIVALFIMEPPDIMHDYPSIREVYLICNTTNLGVVTPLGYNGLLILSCTFYAFKTRNVPANFNEAKYIAFTMYTTCIIWLAFVPIYFGSNYKIITMCFSVSLSATVALGCMFVPKVYIILAKPERNVRSAFTTSTVVRMHVGDGKSSSAASRSSSLVNLWKRRGSS
B1: binds.
